Data set [1] has as its target T1, CgDHQD (Corynebacterium glutamicum, UniProt O52377, R19A).
T1 construct: gene aroQ; full length in pET30a (NdeI/XhoI), C-terminal 6xHis tag not reported cut, E. coli BL21(DE3); by primers starts MPGKILLLN, ends DILANLKK before tag
As to the kind of experiment: X-ray crystal structure, […] A, crystal soaked with […] DHQ. The format is binding. The following applies: active site; inactive variant; glycerol occupies the R19 side-chain space; pH 5.5.

The target of data set [2] is T2, CgDHQD (Corynebacterium glutamicum, UniProt O52377).
T2 construct: gene aroQ; full length in pET30a (NdeI/XhoI), C-terminal 6xHis tag not reported cut, E. coli BL21(DE3); by primers starts MPGKILLLN, ends DILANLKK before tag
T2 sequence (O52377 1-145): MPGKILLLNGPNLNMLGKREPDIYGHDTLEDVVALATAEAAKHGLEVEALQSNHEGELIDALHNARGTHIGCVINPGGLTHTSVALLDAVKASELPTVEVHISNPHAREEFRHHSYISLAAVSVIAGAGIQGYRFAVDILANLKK
As to the kind of experiment: X-ray crystal structure, […] A, co-crystallised. The following applies: active site, two binding modes; 0.2 M ammonium citrate tribasic pH 7.0 in the crystallisation solution.

Substrate in the data set “purified protein”: O=C1C[C@@](O)(C(=O)O)C[C@@H](O)[C@@H]1O
Description: purified protein. The format is biochemical, Corynebacterium glutamicum. To be noted: 50 mM Tris-HCl pH 8.0, room temperature, 20 nM enzyme, 50-2,000 uM substrate.

Data set [3] deals with the molecule itself. Description: SEC; analytical size-exclusion chromatography, Superdex 200 Increase 10/300 GL, 150 mM NaCl, 40 mM Tris-HCl pH 8.0, 1 ml of 1 mg/ml protein, 277 K; calibrated with aldolase, ovalbumin, ribonuclease A, aprotinin. (Size exclusion chromatography separates by hydrodynamic size, large species first.)
Data set [4] deals with the molecule itself. Description: crystal structure; CgDHQD R19A, 0.8 M lithium sulfate, 0.4 M ammonium sulfate, 0.1 M sodium citrate pH 5.5, soaked with 100 mM DHQ; space group C2221, six molecules per asymmetric unit, 2.0 Å.

Regarding `O=C1C[C@@](O)(C(=O)O)C[C@@H](O)[C@@H]1O` [DHQ, 3-dehydroquinic acid], the “X-ray crystal structure, 2.00 A, crystal soaked with 100 mM DHQ” value on CgDHQD [1] is listed as “The DHQ-bound structure of CgDHQD explained the substrate-binding mode of the enzyme”.
For the molecule `O=C(O)CC(O)(CC(=O)O)C(=O)O` [citrate], the “X-ray crystal structure, 1.80 A, co-crystallised” value on CgDHQD [2] is “CgDHQD structure in complex with the citrate ion exhibits two different binding modes”.

B1: 3-dehydroquinate dehydratase from Corynebacterium glutamicum, wild type (enzyme, Corynebacterium glutamicum ATCC 13032, UniProt O52377 1-145, looked up)
chain: MPGKILLLNGPNLNMLGKREPDIYGHDTLEDVVALATAEAAKHGLEVEALQSNHEGELIDALHNARGTHIGCVINPGGLTHTSVALLDAVKASELPTVEVHISNPHAREEFRHHSYISLAAVSVIAGAGIQGYRFAVDILANLKK
notes: 3-dehydroquinate dehydratase (type II DHQD, EC 4.2.1.10) of Corynebacterium glutamicum ATCC 13032; The XhoI site of pET30a probably adds LE before the His tag (surmised); also called CgDHQD; CgDHQD^WT; source: E. coli BL21 (DE3)-T1R, purified (Ni-NTA, HiTrap Q ion exchange, size exclusion); copies: 12
Take B1: in “purified protein”, the Michaelis constant (Km) (commonly the concentration of substrate that gives half-maximal velocity) worked out at 348.20 µM and the kcat (commonly the maximal rate divided by the concentration of active sites) is 150.19 s⁻¹. Also, in data set [3], the stoichiometry N – broadly, a count of units in the complex or per binding partner – was 12.

B2: CgDHQD (Corynebacterium glutamicum ATCC 13032; S103T) (protein)
chain: MPGKILLLNGPNLNMLGKREPDIYGHDTLEDVVALATAEAAKHGLEVEALQSNHEGELIDALHNARGTHIGCVINPGGLTHTSVALLDAVKASELPTVEVHITNPHAREEFRHHSYISLAAVSVIAGAGIQGYRFAVDILANLKK
notes: full length in pET30a (NdeI/XhoI), C-terminal 6xHis tag not reported cut, E. coli BL21(DE3); by primers starts MPGKILLLN, ends DILANLKK before tag
Regarding B2, in the data set “purified protein”, the Michaelis constant (Km) turned out to be 745.3 µM and the kcat came to 199.67 s⁻¹.

B3: 3-dehydroquinate dehydratase from Corynebacterium glutamicum, R19A variant (enzyme, Corynebacterium glutamicum ATCC 13032, UniProt O52377 1-145, looked up)
chain: MPGKILLLNGPNLNMLGKAEPDIYGHDTLEDVVALATAEAAKHGLEVEALQSNHEGELIDALHNARGTHIGCVINPGGLTHTSVALLDAVKASELPTVEVHISNPHAREEFRHHSYISLAAVSVIAGAGIQGYRFAVDILANLKK
notes: also called CgDHQD^R19A; source: E. coli BL21 (DE3)-T1R, purified in the same manner as wild type (Ni-NTA, ion exchange, size exclusion)
With B3, the binding result in data set [4] is “binds”.

Values taken from PMC10772564, “Structural and Biochemical Analysis of 3-Dehydroquinate Dehydratase from Corynebacterium glutamicum” (Journal of Microbiology and Biotechnology, 2023).
